Results taken from patent publication US20180369355A1 (TEXAS A AND M UNIVERSITY SYSTEM, published 2018).

T1: human fibrinogen (human, UniProt P02671 20-629; P02675 31-491; P02679 27-437)
T1 construct: also called Fg; intact Fg
T1 sequence 1: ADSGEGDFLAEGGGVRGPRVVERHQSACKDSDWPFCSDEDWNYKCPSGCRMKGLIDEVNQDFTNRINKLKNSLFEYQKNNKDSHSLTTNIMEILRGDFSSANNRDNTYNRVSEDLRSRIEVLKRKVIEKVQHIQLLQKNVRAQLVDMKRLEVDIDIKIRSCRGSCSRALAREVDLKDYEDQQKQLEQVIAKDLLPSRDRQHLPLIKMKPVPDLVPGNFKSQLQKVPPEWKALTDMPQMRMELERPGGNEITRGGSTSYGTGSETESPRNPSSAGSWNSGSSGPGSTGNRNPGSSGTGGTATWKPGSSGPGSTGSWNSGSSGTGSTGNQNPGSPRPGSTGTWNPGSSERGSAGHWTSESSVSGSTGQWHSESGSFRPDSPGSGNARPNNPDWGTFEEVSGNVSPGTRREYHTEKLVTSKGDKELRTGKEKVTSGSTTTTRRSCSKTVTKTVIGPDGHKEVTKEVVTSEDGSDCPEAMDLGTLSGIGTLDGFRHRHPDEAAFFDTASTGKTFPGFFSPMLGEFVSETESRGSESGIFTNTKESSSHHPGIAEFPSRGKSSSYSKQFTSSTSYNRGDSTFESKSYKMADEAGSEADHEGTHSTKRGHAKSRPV
T1 sequence 2: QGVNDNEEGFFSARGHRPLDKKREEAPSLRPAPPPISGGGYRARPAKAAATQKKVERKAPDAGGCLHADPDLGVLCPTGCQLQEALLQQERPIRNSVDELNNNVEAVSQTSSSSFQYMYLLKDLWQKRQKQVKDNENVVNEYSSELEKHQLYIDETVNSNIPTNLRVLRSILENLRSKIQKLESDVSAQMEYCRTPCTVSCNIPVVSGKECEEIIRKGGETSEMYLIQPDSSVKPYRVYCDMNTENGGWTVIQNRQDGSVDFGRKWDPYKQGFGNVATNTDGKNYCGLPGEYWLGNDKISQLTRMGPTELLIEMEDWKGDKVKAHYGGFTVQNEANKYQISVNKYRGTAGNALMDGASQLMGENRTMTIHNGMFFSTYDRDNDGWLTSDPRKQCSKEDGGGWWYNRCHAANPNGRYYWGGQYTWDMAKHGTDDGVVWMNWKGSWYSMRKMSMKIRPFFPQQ
T1 sequence 3: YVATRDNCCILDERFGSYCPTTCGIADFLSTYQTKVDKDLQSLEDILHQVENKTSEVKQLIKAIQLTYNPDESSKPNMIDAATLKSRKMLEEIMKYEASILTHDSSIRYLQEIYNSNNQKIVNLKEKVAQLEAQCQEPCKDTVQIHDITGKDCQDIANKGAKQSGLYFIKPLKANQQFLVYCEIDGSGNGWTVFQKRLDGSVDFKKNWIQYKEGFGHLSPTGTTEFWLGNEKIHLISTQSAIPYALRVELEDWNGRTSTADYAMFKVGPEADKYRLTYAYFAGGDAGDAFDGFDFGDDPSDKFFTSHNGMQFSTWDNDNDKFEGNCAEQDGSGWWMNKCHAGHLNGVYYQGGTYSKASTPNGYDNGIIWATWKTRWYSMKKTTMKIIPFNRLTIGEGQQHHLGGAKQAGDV

T2: Fg D-fragment (UniProt P02671 130-216; P02675 164-491; P02679 114-437)
T2 construct: domain: D-fragment; also called D-domain
T2 sequence 1: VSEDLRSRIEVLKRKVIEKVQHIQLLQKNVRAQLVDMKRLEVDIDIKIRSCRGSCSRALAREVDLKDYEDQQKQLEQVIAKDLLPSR
T2 sequence 2: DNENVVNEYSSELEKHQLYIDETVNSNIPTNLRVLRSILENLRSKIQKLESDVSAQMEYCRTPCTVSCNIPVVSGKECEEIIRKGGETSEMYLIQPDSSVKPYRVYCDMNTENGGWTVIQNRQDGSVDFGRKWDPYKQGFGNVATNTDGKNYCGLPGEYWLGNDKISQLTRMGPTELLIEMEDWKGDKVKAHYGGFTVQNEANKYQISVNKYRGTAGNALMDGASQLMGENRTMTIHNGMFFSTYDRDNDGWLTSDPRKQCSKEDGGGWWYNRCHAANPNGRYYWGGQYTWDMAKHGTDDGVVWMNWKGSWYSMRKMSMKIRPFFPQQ
T2 sequence 3: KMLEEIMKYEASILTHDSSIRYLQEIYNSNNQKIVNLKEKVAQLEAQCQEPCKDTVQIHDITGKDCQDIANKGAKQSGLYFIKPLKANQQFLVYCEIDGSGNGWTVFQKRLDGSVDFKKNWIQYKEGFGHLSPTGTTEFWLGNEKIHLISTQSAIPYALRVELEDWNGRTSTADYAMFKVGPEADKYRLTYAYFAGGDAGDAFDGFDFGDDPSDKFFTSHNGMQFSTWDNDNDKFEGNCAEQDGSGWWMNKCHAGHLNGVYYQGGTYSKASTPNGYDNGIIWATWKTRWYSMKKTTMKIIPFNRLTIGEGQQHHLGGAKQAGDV

T3: ClfACC (S. aureus, UniProt Q53653 229-545, engineered disulfide bond between C327 and C541)
T3 construct: also called disulfide bond-closed ClfACC; closed form of ClfA N2N3
T3 sequence: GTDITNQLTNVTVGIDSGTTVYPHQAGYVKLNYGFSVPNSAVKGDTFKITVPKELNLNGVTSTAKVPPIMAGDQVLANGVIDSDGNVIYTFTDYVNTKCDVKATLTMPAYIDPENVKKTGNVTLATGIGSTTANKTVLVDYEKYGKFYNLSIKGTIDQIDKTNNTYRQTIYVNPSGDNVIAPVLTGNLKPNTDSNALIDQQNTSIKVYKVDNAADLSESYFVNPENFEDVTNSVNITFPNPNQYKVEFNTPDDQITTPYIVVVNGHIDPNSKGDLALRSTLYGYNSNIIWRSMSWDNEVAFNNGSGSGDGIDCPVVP

B1: ClfAPWY (other)
chain: VAADAPAAGTDITNQLTNVTVGIDSGTTVYPHQAGYVKLNYGFSVPNSAVKGDTFKITVPKELNLNGVTSTAKVPPIMAGDQVLANGVIDSDGNVIYTFTDYVNTKDDVKATLTMPAYIDPENVKKTGNVTLATGIGSTTANKTVLVDYEKYGKFYNLSIKGTIDQIDKTNNTYRQTIYVNPSGDNVIAPVLTGNLKPNTDSNALIDQQNTSIKVYKVDNAADLSESYFVNPENFEDVTNSVNITFANPNQYKVEFNTPDDQITTPYIVVVNGHIDPNSKGDLALRSTLYGANSNIIARSMSWDNEVAFNNGSGSGDGIDKPVVPEQPDEPGEIEPIPE
notes: also called triple mutant
B2: synthetic C-terminal γ-chain peptide (peptide)
peptide: GEGQQHHLGGAKQAGDV
notes: domain: C-terminal γ-chain peptide; also called Fg γ-peptide; synthetic Fg γ-peptide
B3: ClfA370-559 (other)
chain: EKYGKFYNLSIKGTIDQIDKTNNTYRQTIYVNPSGDNVIAPVLTGNLKPNTDSNALIDQQNTSIKVYKVDNAADLSESYFVNPENFEDVTNSVNITFPNPNQYKVEFNTPDDQITTPYIVVVNGHIDPNSKGDLALRSTLYGYNSNIIWRSMSWDNEVAFNNGSGSGDGIDKPVVPEQPDEPGEIEPIPE
notes: also called recombinant form of N3
B4: Fg γ-peptide P16 (peptide)
peptide: GEGQQHHLGGAKQAGAV
notes: domain: γ-peptide; Position 410 probably counts on the mature γ-chain; also called P16 peptide; Fg-γ P16 peptide

Assays:
human fibrinogen [1] = target: T1, human fibrinogen; assay: SPR; immobilized Fg; estimated; SPR, Fg, estimated, data not shown
Fg γ-peptide P16 [2] = target: B4; assay: ITC, 0.5 mM P16 peptide injected into 30 µM ClfAPWY; OneSites fit box
Fg D-fragment [3] = target: T2, Fg D-fragment; assay: SPR; immobilized D-fragment; estimated; SPR, D-fragment, estimated, data not shown
Fg γ-peptide P16 [4] = target: B4; assay: ITC, 0.5 mM P16 peptide injected into 30 µM ClfAPWY; OneSites fit box, unit not given
ClfACC [5] = target: T3, ClfACC; assay: ITC; peptide titrated into a cell containing ClfACC; the unit is missing in the print; γ-chain peptide titrated into ClfACC
human fibrinogen [6] = target: T1, human fibrinogen; assay: SPR (Biacore), drawn table Ligand/analyte: fibrinogen immobilized, ClfA N3 domain (ClfA370-559) as analyte
human fibrinogen [7] = target: T1, human fibrinogen; assay: SPR; immobilized Fg against γ-peptide
Fg D-fragment [8] = target: T2, Fg D-fragment; assay: SPR (Biacore), drawn table Ligand/analyte: Fg D-fragment immobilized, ClfA N3 domain (ClfA370-559) as analyte
Fg D-fragment [9] = target: T2, Fg D-fragment; assay: SPR; immobilized Fg D-fragment against γ-peptide
ClfAPWY = target: B1; assay: ITC; 0.5 mM P16 injected into 30 µM ClfAPWY, 30 °C; ITC, P16 peptide
ClfACC [10] = target: T3, ClfACC; assay: ITC, peptide titrated into ClfACC (paragraph 56 gives this KD as '9' without a unit and calls the peptide a synthetic C-terminal γ-chain peptide; the sheet names it P16)

B1 was tested, and the Kd (human fibrinogen [1]) was 10 µM, the N (Fg γ-peptide P16 [2]) was 1.23 and the Kd (Fg D-fragment [3]) was 17 µM. For the same binder, the ΔH (Fg γ-peptide P16 [4]) was -6790 and the ΔS (Fg γ-peptide P16 [4]) was 1.59.

Binder B2 has a Kd (ClfACC [5]) of 9 µM.

B3 was tested, and the Kd (human fibrinogen [6]) was 5.9 µM, the “fold lower KD than for the γ-peptide” value (human fibrinogen [7]) was about 10 fold and the Kd (Fg D-fragment [8]) was 6.9 µM. For the same binder, the “fold lower KD than for the γ-peptide” value (Fg D-fragment [9]) was about 10 fold.

B4 showed a Kd (ClfAPWY) of about 5.8 µM and a Kd (ClfACC [10]) of 9 µM.
